Patent US20140378663A1

Columns and labels:
Fcγ receptors = assay: cell-based or functional assay
[1] = target: RhD antigen on RhD+ red blood cells (UniProt Q02161); assay: flow cytometry on RhD+ red blood cells
[2] = target: Recombinant soluble human FcRn (human) (UniProt P55899); assay: SPR (BIAcore X100), FcRn immobilised, pH 6.0
[3] = target: Recombinant soluble human FcRn (human) (UniProt P55899); assay: SPR, FcRn immobilised, pH 6.0; reference R593
[4] = target: FcRn-p3 (fusion protein of β2 microglobulin chain and FcRn α-chain fused to bacteriophage protein p3 and CVDE protein) (UniProt P61769); assay: ELISA, purified IgG from YB2/0, vs R593 IgG-WT
[5] = target: FcγRI (R&D system) (human) (UniProt P12314); assay: ELISA, purified IgG from YB2/0, vs R593 IgG-WT
[6] = target: FcγRIIIaF158 (PX Therapeutics, His-tagged) (human) (UniProt P08637); assay: ELISA, purified IgG from YB2/0, vs R593 IgG-WT
[7] = target: FcγRIIIaV158 (R&D system) (human) (UniProt P08637); assay: ELISA, purified IgG from YB2/0, vs R593 IgG-WT
[8] = target: FcγRIIaH131 (PX Therapeutics, His-tagged) (human) (UniProt P12318); assay: ELISA, purified IgG from YB2/0, vs R593 IgG-WT
[9] = target: FcγRIIaR131 (R&D system) (human) (UniProt P12318); assay: ELISA, purified IgG from YB2/0, vs R593 IgG-WT
[10] = target: FcγRIIb (R&D system) (human) (UniProt P31994); assay: ELISA, purified IgG from YB2/0, vs R593 IgG-WT
[11] = target: FcRn-p3 (fusion protein of β2 microglobulin chain and FcRn α-chain fused to bacteriophage protein p3 and CVDE protein) (UniProt P61769); assay: ELISA, 293-F supernatant, vs R603 IgG-WT
[12] = target: FcγRI (R&D system) (human) (UniProt P12314); assay: ELISA, 293-F supernatant, vs R603 IgG-WT
[13] = target: FcγRIIaR131 (R&D system) (human) (UniProt P12318); assay: ELISA, 293-F supernatant, vs R603 IgG-WT
[14] = target: FcγRIIb (R&D system) (human) (UniProt P31994); assay: ELISA, 293-F supernatant, vs R603 IgG-WT
[15] = target: C1q complement (Calbiochem) (UniProt P02745); assay: ELISA, 293-F supernatant, vs R603 IgG-WT
[16] = target: FcγRIIIaV158 (R&D system) (human) (UniProt P08637); assay: ELISA, 293-F supernatant, vs R603 IgG-WT
[17] = target: FcRn-p3 (fusion protein of β2 microglobulin chain and FcRn α-chain fused to bacteriophage protein p3 and CVDE protein) (UniProt P61769); assay: ELISA, purified IgG from YB2/0, vs R603 IgG-WT
[18] = target: FcγRI (R&D system) (human) (UniProt P12314); assay: ELISA, purified IgG from YB2/0, vs R603 IgG-WT
[19] = target: FcγRIIIaF158 (PX Therapeutics, His-tagged) (human) (UniProt P08637); assay: ELISA, purified IgG from YB2/0, vs R603 IgG-WT
[20] = target: FcγRIIIaV158 (R&D system) (human) (UniProt P08637); assay: ELISA, purified IgG from YB2/0, vs R603 IgG-WT
[21] = target: FcγRIIaH131 (PX Therapeutics, His-tagged) (human) (UniProt P12318); assay: ELISA, purified IgG from YB2/0, vs R603 IgG-WT
[22] = target: FcγRIIaR131 (R&D system) (human) (UniProt P12318); assay: ELISA, purified IgG from YB2/0, vs R603 IgG-WT
[23] = target: FcγRIIb (R&D system) (human) (UniProt P31994); assay: ELISA, purified IgG from YB2/0, vs R603 IgG-WT
[24] = target: C1q complement (Calbiochem) (UniProt P02745); assay: ELISA, 293-F supernatant, vs parent 256N/378V/383N/434Y
[25] = target: FcRn-p3 (fusion protein of β2 microglobulin chain and FcRn α-chain fused to bacteriophage protein p3 and CVDE protein) (UniProt P61769); assay: as above
[26] = target: FcγRI (R&D system) (human) (UniProt P12314); assay: as above
[27] = target: FcγRIIaR131 (R&D system) (human) (UniProt P12318); assay: as above
[28] = target: FcγRIIb (R&D system) (human) (UniProt P31994); assay: as above
[29] = target: FcRn-p3 (fusion protein of β2 microglobulin chain and FcRn α-chain fused to bacteriophage protein p3 and CVDE protein) (UniProt P61769); assay: ELISA, purified IgG from YB2/0, vs parent R603-256N/378V/383N/434Y
[30] = target: FcγRI (R&D system) (human) (UniProt P12314); assay: as above
[31] = target: FcγRIIaH131 (PX Therapeutics, His-tagged) (human) (UniProt P12318); assay: as above
[32] = target: FcγRIIaR131 (R&D system) (human) (UniProt P12318); assay: as above
[33] = target: FcγRIIb (R&D system) (human) (UniProt P31994); assay: as above
[34] = target: C1q complement (Calbiochem) (UniProt P02745); assay: cell-based or functional assay
[35] = target: T1, CD20 antigen on Raji lymphoblastoid B cells (UniProt P11836); assay: flow cytometry on Raji cells
T1 sequence (looked up): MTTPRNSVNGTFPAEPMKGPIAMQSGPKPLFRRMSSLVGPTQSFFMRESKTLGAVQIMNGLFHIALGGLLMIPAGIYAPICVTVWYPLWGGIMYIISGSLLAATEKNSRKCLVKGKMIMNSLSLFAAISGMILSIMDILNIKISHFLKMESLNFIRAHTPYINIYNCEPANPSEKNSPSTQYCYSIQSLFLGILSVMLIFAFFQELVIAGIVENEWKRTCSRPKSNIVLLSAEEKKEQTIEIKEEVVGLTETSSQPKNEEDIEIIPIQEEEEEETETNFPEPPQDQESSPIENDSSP

[36] = target: Recombinant soluble human FcRn (human) (UniProt P55899); assay: SPR, FcRn immobilised, pH 6.0; reference R603

RhD antigen on RhD+ red blood cells, sequence (Q02161 2-417 limits assumed): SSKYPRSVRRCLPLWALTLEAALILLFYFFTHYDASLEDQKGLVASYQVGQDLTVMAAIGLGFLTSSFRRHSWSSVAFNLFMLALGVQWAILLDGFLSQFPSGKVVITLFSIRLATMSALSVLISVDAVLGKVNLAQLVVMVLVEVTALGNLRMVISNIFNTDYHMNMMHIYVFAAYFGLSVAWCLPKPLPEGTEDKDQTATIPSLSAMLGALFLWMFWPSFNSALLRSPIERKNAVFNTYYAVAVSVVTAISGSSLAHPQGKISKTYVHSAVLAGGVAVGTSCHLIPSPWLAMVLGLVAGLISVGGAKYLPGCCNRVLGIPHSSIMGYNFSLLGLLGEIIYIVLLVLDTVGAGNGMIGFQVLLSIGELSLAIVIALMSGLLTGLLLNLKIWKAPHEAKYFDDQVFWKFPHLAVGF
Recombinant soluble human FcRn (human), sequence (P55899 24-290 limits assumed, chain 1 of 2): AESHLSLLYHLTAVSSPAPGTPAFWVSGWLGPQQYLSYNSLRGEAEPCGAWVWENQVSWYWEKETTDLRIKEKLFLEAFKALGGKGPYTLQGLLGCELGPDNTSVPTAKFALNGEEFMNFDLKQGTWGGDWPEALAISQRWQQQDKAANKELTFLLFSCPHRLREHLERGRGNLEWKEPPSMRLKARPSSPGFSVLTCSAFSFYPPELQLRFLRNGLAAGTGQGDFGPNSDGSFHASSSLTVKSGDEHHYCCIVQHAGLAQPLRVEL
Recombinant soluble human FcRn (human), sequence (P61769 21-119 limits assumed, chain 2 of 2, further chain): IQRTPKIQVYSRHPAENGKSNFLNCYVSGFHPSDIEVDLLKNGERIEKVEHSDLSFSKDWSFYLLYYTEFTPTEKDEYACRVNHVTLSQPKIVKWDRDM
FcγRIIIaV158 (R&D system) (human), sequence (P08637 17-208 F176V limits assumed): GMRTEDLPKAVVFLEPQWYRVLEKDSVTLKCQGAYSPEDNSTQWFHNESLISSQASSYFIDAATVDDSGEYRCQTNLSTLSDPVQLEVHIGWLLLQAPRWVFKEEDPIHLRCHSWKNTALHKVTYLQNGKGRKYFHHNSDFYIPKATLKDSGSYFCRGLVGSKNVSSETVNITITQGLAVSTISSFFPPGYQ
C1q complement (Calbiochem), sequence (P02745 23-245, chain 1 of 3): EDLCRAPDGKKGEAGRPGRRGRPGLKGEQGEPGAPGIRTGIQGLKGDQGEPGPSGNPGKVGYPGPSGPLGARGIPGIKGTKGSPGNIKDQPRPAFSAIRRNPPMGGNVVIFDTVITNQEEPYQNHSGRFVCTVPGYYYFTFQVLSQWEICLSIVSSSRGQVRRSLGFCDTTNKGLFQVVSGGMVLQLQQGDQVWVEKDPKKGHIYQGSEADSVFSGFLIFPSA
C1q complement (Calbiochem), sequence (P02746 28-253, chain 2 of 3, further chain): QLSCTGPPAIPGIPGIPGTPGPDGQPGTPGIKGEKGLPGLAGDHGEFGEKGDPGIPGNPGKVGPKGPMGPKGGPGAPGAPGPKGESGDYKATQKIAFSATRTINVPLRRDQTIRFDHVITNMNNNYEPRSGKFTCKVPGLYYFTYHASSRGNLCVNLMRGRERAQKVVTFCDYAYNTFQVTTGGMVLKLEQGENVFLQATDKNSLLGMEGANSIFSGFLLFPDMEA
C1q complement (Calbiochem), sequence (P02747 29-245, chain 3 of 3, further chain): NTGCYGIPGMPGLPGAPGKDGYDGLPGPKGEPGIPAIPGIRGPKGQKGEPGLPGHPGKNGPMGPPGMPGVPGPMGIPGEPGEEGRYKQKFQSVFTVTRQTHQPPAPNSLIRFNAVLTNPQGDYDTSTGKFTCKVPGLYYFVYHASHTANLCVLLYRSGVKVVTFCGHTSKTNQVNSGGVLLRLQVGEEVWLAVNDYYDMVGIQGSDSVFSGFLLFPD
FcRn-p3 (fusion protein of β2 microglobulin chain and FcRn α-chain fused to bacteriophage protein p3 and CVDE protein), sequence (P61769 21-119, chain 1 of 2): as the sequence (P61769 21-119 limits assumed, chain 2 of 2, further chain) above
FcRn-p3 (fusion protein of β2 microglobulin chain and FcRn α-chain fused to bacteriophage protein p3 and CVDE protein), sequence (P55899 24-290, chain 2 of 2, further chain): as the sequence (P55899 24-290 limits assumed, chain 1 of 2) above
FcγRIIIaF158 (PX Therapeutics, His-tagged) (human), sequence (P08637 17-208 limits assumed): as the sequence (P08637 17-208 F176V limits assumed) above, with V160F counted along it
FcγRI (R&D system) (human), sequence (P12314 16-288 limits assumed): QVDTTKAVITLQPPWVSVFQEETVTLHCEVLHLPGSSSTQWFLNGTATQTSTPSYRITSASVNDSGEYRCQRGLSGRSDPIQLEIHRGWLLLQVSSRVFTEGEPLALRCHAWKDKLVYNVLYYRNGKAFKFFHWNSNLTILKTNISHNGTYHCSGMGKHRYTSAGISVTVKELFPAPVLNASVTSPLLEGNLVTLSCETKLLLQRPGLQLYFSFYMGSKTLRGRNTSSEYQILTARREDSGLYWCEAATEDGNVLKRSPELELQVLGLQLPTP
FcγRIIaR131 (R&D system) (human), sequence (P12318 36-218 H167R limits assumed): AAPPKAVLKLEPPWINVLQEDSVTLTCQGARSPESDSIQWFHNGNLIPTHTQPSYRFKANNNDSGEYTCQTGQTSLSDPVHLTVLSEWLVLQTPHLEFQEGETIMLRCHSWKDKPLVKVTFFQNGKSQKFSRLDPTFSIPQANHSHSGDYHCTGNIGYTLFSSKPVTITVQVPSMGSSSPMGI
FcγRIIaH131 (PX Therapeutics, His-tagged) (human), sequence (P12318 34-217 limits assumed): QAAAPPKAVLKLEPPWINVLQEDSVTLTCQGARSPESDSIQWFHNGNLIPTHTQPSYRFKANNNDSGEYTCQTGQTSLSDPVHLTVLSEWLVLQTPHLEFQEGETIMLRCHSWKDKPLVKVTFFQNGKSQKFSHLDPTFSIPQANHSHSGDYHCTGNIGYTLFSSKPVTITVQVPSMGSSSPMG
FcγRIIb (R&D system) (human), sequence (P31994 46-217 limits assumed): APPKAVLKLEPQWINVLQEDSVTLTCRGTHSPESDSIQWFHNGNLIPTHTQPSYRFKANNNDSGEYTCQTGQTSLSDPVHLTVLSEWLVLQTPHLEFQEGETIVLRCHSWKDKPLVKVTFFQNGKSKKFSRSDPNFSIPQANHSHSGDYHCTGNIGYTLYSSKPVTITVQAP

Substance “R593 anti-RhD+ IgG1 variant 256N/378V/383N/434Y (antibody)” has an ADCC EC50 (ng/ml), lysis of RhD+ red cells (Fcγ receptors) of 11.1 ng/mL, an ADCC Max. Lysis (%) (Fcγ receptors) of 93% and an Ag binding MFI (Arbitrary Unit) [1] of 49.6. It also gave a Kd [2] of 42 nM, a Ratio WT/IgG (KD) [3] of 4.52 and a Ratio/IgG-WT [4] of 7.49. It also gave a Ratio/IgG-WT [5] of 2.19, a Ratio/IgG-WT [6] of 0.92 and a Ratio/IgG-WT [7] of 0.98. The Ratio/IgG-WT [8] was 1.01, the Ratio/IgG-WT [9] was 1.08 and the Ratio/IgG-WT [10] was 1.55.
In the case of “R603 anti-CD20 IgG1 variant 294Del/378V (antibody)”, the Ratio/IgG-WT [11] is reported as 1.46, the Ratio/IgG-WT [12] is reported as 0.33 and the Ratio/IgG-WT [13] is reported as 0.06. The Ratio/IgG-WT [14] was 0.11.
“R603 anti-CD20 IgG1 variant 294Del/307A (antibody)” gave a Ratio/IgG-WT [15] of 0.46, a Ratio/IgG-WT [11] of 1.94 and a Ratio/IgG-WT [12] of 0.35. For the same substance, the Ratio/IgG-WT [13] was 0.01 and the Ratio/IgG-WT [14] was 0.2.
Work on “R593 anti-RhD+ IgG1 variant 294Del (antibody)” yielded an ADCC EC50 (ng/ml), lysis of RhD+ red cells (Fcγ receptors) of 75.9 ng/mL, an ADCC Max. Lysis (%) (Fcγ receptors) of 5% and an Ag binding MFI (Arbitrary Unit) [1] of 52.6. The Kd [2] was 204 nM.
“R603 anti-CD20 IgG1 variant 294Del/434S (antibody)” was tested, and the Ratio/IgG-WT [15] was 0.25, the Ratio/IgG-WT [11] was 2.64 and the Ratio/IgG-WT [12] was 0.49. For the same substance, the Ratio/IgG-WT [13] was 0.02 and the Ratio/IgG-WT [14] was 0.05.
In the case of “R603 anti-CD20 IgG1 variant 294Del/397M (antibody)”, the Ratio/IgG-WT [15] is reported as 0.25, the Ratio/IgG-WT [11] is reported as 0.84 and the Ratio/IgG-WT [12] is reported as 0.68. It also gave a Ratio/IgG-WT [13] of 0.03 and a Ratio/IgG-WT [14] of 0.04.
Substance “R603 anti-CD20 IgG1 variant 256N/378V/383N/434Y (antibody)” has a Ratio/IgG-WT [15] of 3.65, a Ratio/IgG-WT [11] of 4.63 and a Ratio/IgG-WT [12] of 0.93. For the same substance, the Ratio/IgG-WT [16] was 2.09, the Ratio/IgG-WT [13] was 2.59 and the Ratio/IgG-WT [14] was 4.77. It also gave a Ratio/IgG-WT [17] of 8.51, a Ratio/IgG-WT [18] of 2.19 and a Ratio/IgG-WT [19] of 1.25. The Ratio/IgG-WT [20] was 1.22, the Ratio/IgG-WT [21] was 0.93 and the Ratio/IgG-WT [22] was 1.4. For the same substance, the Ratio/IgG-WT [23] was 1.83.
In the case of “R603 anti-CD20 IgG1 variant 294Del/315D (antibody)”, the Ratio/IgG-WT [15] is reported as 0.29, the Ratio/IgG-WT [11] is reported as 1.16 and the Ratio/IgG-WT [12] is reported as 0.4. For the same substance, the Ratio/IgG-WT [14] was 0.21.
“R603 anti-CD20 IgG1 variant 256N/294Del/378V/383N/434Y (antibody)” showed a ratio to the IgG1 without 294Del [24] of 0.04, a ratio to the IgG1 without 294Del [25] of 0.75 and a ratio to the IgG1 without 294Del [26] of 0.66. It also gave a ratio to the IgG1 without 294Del [27] of 0.004, a ratio to the IgG1 without 294Del [28] of 0.002 and a ratio to the IgG1 without 294Del [29] of 1.04. For the same substance, the ratio to the IgG1 without 294Del [30] was 0.07, the ratio to the IgG1 without 294Del [31] was 0.09 and the ratio to the IgG1 without 294Del [32] was 0.06. The ratio to the IgG1 without 294Del [33] was 0.25.
For “R593 anti-RhD+ IgG1 variant 259I/315D/434Y (antibody)”, the ADCC EC50 (ng/ml), lysis of RhD+ red cells (Fcγ receptors) was 14.2 ng/mL, the ADCC Max. Lysis (%) (Fcγ receptors) was 89% and the Ag binding MFI (Arbitrary Unit) [1] was 47.2. For the same substance, the Kd [2] was 20.4 nM, the Ratio WT/IgG (KD) [3] was 9.31 and the Ratio/IgG-WT [4] was 7.93. The Ratio/IgG-WT [5] was 1.08, the Ratio/IgG-WT [6] was 0.94 and the Ratio/IgG-WT [7] was 0.95. The Ratio/IgG-WT [8] was 0.94, the Ratio/IgG-WT [9] was 1.05 and the Ratio/IgG-WT [10] was 1.41.
For “R603 anti-CD20 IgG1 variant 294Del/302A (antibody)”, the Ratio/IgG-WT [15] was 0.21, the Ratio/IgG-WT [11] was 0.66 and the Ratio/IgG-WT [12] was 0.06. It also gave a Ratio/IgG-WT [13] of 0.02 and a Ratio/IgG-WT [14] of 0.06.
For “R603 anti-CD20 IgG1 variant 259I/315D/434Y (antibody)”, the CDC EC50 [34] was 0.41 µg/mL, the Ag binding MFI (Arbitrary Unit) [35] was 137 and the Ratio/IgG-WT [15] was 1.26. It also gave a Ratio/IgG-WT [11] of 4.32, a Ratio/IgG-WT [12] of 0.82 and a Ratio/IgG-WT [16] of 1.08. For the same substance, the Ratio/IgG-WT [13] was 1.23, the Ratio/IgG-WT [14] was 1.07 and the Kd [2] was 26.9 nM. The Ratio WT/IgG (KD) [36] was 3.68, the Ratio/IgG-WT [17] was 6.93 and the Ratio/IgG-WT [18] was 1.12. The Ratio/IgG-WT [19] was 1.11, the Ratio/IgG-WT [20] was 1.11 and the Ratio/IgG-WT [21] was 0.99. For the same substance, the Ratio/IgG-WT [22] was 1.11 and the Ratio/IgG-WT [23] was 1.54.
“R603 anti-CD20 IgG1 variant 230S/294Del/315D/428L/434Y (antibody)” gave a Ratio/IgG-WT [15] of 0.35, a Ratio/IgG-WT [11] of 3.86 and a Ratio/IgG-WT [12] of 0.25. For the same substance, the Ratio/IgG-WT [13] was 0.01 and the Ratio/IgG-WT [14] was 0.02.
Substance “R603 anti-CD20 IgG1 variant 294Del (antibody)” has an Ag binding MFI (Arbitrary Unit) [35] of 126 and a Kd [2] of 190 nM.
